From the supplement of paper PMC9112550, “Optimization of the antimicrobial peptide Bac7 by deep mutational scanning” (BMC Biology, 2022)

System: Escherichia coli TOP10
Test: shrunken log2 fold change of peptide-encoding DNA abundance (4.5 h post-induction vs induction); higher = less antimicrobial activity (less host growth inhibition)
Conditions: time post-induction: 4.5 h; library: site-saturation at positions 5, 18, 19, 20
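Note: peptides expressed intracellularly from a pBAD plasmid library in pooled LB shake-flask culture, induced with 0.3% L-arabinose, DNA abundance read by NGS, three biological replicates, DESeq2 with apeglm shrinkage.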

Sequence	shrunken log2 fold change
RRIRARPPRLPRPRPRPWHRPRP	0.00868
RRIRARPPRLPRPRPRPWILPRP	0.223
RRIRARPPRLPRPRPRPWIWPRP	0.111
RRIRARPPRLPRPRPRPWIYPRP	-0.647
RRIRARPPRLPRPRPRPWLPPRP	0.197
RRIRARPPRLPRPRPRPWLVPRP	0.0219
RRIRARPPRLPRPRPRPWMQPRP	-0.152
RRIRARPPRLPRPRPRPWNGPRP	0.0566
RRIRARPPRLPRPRPRPWNRPRP	-0.0462
RRIRARPPRLPRPRPRPWQLPRP	-0.106
RRIRARPPRLPRPRPRPWQSPRP	0.183
RRIRARPPRLPRPRPRPWQTPRP	0.0127
RRIRARPPRLPRPRPRPWSNPRP	0.0711
RRIRARPPRLPRPRPRPWTGPRP	0.00192
RRIRARPPRLPRPRPRPWVEPRP	0.151
RRIRARPPRLPRPRPRPWVHPRP	-0.162
RRIRARPPRLPRPRPRPWVRPRP	-0.323
RRIRARPPRLPRPRPRPWVWPRP	0.596
RRIRARPPRLPRPRPRPWWFPRP	0.049
RRIRARPPRLPRPRPRPWWPPRP	0.292

Sequence	shrunken log2 fold change
RRIRARPPRLPRPRPRPWWQPRP	0.00618
RRIRARPPRLPRPRPRPWYDPRP	-0.32
RRIRARPPRLPRPRPRPYAEPRP	-0.104
RRIRARPPRLPRPRPRPYDRPRP	-0.01
RRIRARPPRLPRPRPRPYEDPRP	-0.117
RRIRARPPRLPRPRPRPYFEPRP	-0.577
RRIRARPPRLPRPRPRPYFGPRP	-0.327
RRIRARPPRLPRPRPRPYFHPRP	-0.444
RRIRARPPRLPRPRPRPYIHPRP	-0.681
RRIRARPPRLPRPRPRPYISPRP	-0.132
RRIRARPPRLPRPRPRPYKPPRP	-0.304
RRIRARPPRLPRPRPRPYLAPRP	-0.594
RRIRARPPRLPRPRPRPYLIPRP	-0.659
RRIRARPPRLPRPRPRPYLQPRP	-0.276
RRIRARPPRLPRPRPRPYMCPRP	-0.773
RRIRARPPRLPRPRPRPYQRPRP	-0.229
RRIRARPPRLPRPRPRPYQTPRP	0.00502
RRIRARPPRLPRPRPRPYRNPRP	-0.222
RRIRARPPRLPRPRPRPYTMPRP	-0.301
RRIRARPPRLPRPRPRPYVPPRP	-0.114

Sequence	shrunken log2 fold change
RRIRARPPRLPRPRPRPYVQPRP	-0.471
RRIRARPPRLPRPRPRPYWHPRP	-0.241
RRIRARPPRLPRPRPRPYYAPRP	-0.501
RRIRCRPPRLPRPRPRPAAIPRP	0.0247
RRIRCRPPRLPRPRPRPACIPRP	-0.186
RRIRCRPPRLPRPRPRPADMPRP	-0.115
RRIRCRPPRLPRPRPRPADTPRP	-0.0286
RRIRCRPPRLPRPRPRPAFTPRP	0.0636
RRIRCRPPRLPRPRPRPAGKPRP	0.0831
RRIRCRPPRLPRPRPRPAHDPRP	0.031
RRIRCRPPRLPRPRPRPAIVPRP	-0.37
RRIRCRPPRLPRPRPRPAKCPRP	-0.101
RRIRCRPPRLPRPRPRPAKNPRP	0.00465
RRIRCRPPRLPRPRPRPALQPRP	0.313
RRIRCRPPRLPRPRPRPAMEPRP	0.111
RRIRCRPPRLPRPRPRPAMHPRP	0.354
RRIRCRPPRLPRPRPRPANRPRP	0.127
RRIRCRPPRLPRPRPRPAQNPRP	0.586
RRIRCRPPRLPRPRPRPARSPRP	0.261
RRIRCRPPRLPRPRPRPAVMPRP	0.067
